According to US6833237B1, “Genes involved in stroke response and/or regulated by FK506, proteins encoded thereby, and methods of use” (Quark Biotech, Inc., priority 2000, dated 2004):

B1: SEQ ID No 94: library-derived antisense cDNA fragment of KIAA 0538, expressed from retroviral vector pLXSN (nucleic acid, listed as Homo sapiens)
antisense: TTAAAACTGCTTACCAGTGGCTGTCTGCGCTGCGGAAGGTGAGCATCAACAACACGGGACTGTTGGGCTCCTACCACCCTGGCGTCTTCCGTGGGGACAAGTGGAGCTGCTGCCACCAAAAAGAGAAGACAGGTCAGGGCTGCGATAAGACCCGGNCACGGGTGACCCTGCAGGAGTGGAATGACCCTNTTGACCGTGACCTTGAGGCCCANCTCATCTACCGGCACCTGCTGGGCGNGGAGGCCATGCTGTG
modifications: expressed from retroviral vector pLXSN; (156)..(238) n
notes: library-derived antisense cDNA fragment of KIAA 0538, expressed from retroviral vector pLXSN
B2: full length cDNA clone of KIAA 0538: full-length KIAA0538 cDNA under the control of Tet-repressible promoter, transfected into P19 cells (nucleic acid, listed as Homo sapiens)
DNA: B1 antisense
modifications: under Tet-repressible promoter; (156)..(238) n
notes: full-length KIAA0538 cDNA under the control of Tet-repressible promoter, transfected into P19 cells

How the values were obtained:
BE2C cells = experiment: Dopamine toxicity in BE2C cells, viability by Neutral red staining; assay type: cell-based, human; details: for cell survival at high Dopamine concentrations compared to control: BE2C cells, infection and transfection, Dopamine 24 hours, vs empty vector (FIG. 4 and 5); for protection of cells (Neutral red staining): 24 hours after exposure to high dopamine concentrations
Text: The aim of the experiment was validation of the fragment of KIAA0538 found using Dopamine selection (SEQ. I.D. No 94) which has 253 nucleotides. A slightly smaller fragment was used , wherein the first 12 of the nucleotides of SEQ. I.D. No 94 were replaced with 5 different nucleotides. The location of this smaller fragment (having 246 nucleotides) within the KIAA0538 cDNA is from nucleotide 2020 to nucleotide 2265. For purpose of validation, cells were studied either after decrease of the gene expression by means of transfection or transduction with an antisense expressing vector (the fragment rescued from the library during the functional screening), or after increased gene expression using transfection with a full length expression vector. For experiment, BE2C cells were seeded into 6-well plates at density 100,000 cells/well. Retroviral vector expressing KIAA0538 antisense fragment (rescued in functional selection) fragment or empty vector (pLXSN) were introduced in neuroblastoma cells by two different methods—transfection using Fugen6 reagent (Rosh) or by retroviral infection. Population of transfected/transduced cells was enriched by 3 days G418 selection. BE2C cells were further treated with different concentrations of Dopamine for 24 hours and assayed for viability by Neutral red staining (FIG. 4—infection; FIG. 5—transfection).

P19 cells = experiment: Colony formation assay in P19 cells, normoxic or ischemic conditions; assay type: cell-based, mouse; details: vs empty vector (FIG. 6)
Procedure: FIG. 6B is a graphical representation of FIG. 6A.
The effect of the full length KIAA0538 cDNA on cell survival was tested in colony formation assay in non-differentiated P19 cells stably expressing Tet-activator (confers high level of expression from responsive promoters). P19 cells were transfected with eithet empty vector or the same vector containing the full-length KIAA0538 cDNA under the control of Tet-repressible promoter. The number of transfected cells further taken for colony formation assay was normalized by cotransfection with GFP, so that the equal number of GFP-positive cells was taken for the assay. The cells were further plated and grown in the absence of tetracycline (to ensure the gene's expression) and in the presence of hygromycin (selectable marker) for 48 hours. Then part of the plates were subjected to 16 hours ischemia (0.5% O2 and no glucose) and following the transfer into normoxic conditions were further grown until the accomplishing of hygromycin selection (death of mock-transfected cells). The cell colonies grown in plates were fixed, stained with methylene blue and photographed with a CCD camera (FIG. 6). The area of the colonies was quantified using the IMAGE-Pro program.

| Molecule | cell survival at high Dopamine concentrations compared to control (BE2C cells; listed as KIAA0538 antisense fragment) | cell survival at high Dopamine concentrations compared to control (BE2C cells; listed as antisense KIAA0538 fragment) | cell survival at high Dopamine concentrations compared to control (BE2C cells; listed as antisense fragment of KIAA0538) | protection of cells (Neutral red staining) (BE2C cells; retrovirally infected BE2C cells, vs control vector pLXSN (FIG. 4)) | protection of cells (Neutral red staining) (BE2C cells; transiently transfected BE2C cells, vs control vector pLXSN (FIG. 5)) | effect on cell survival, colony formation (P19 cells; 16 hours ischemia (0.5% O2 and no glucose)) | effect on cell survival, colony formation (P19 cells; 16 hours ischemia (0.5% O2 and no glucose), listed as KIAA0538) | effect on cell survival, colony formation (P19 cells; 16 hours ischemia (0.5% O2 and no glucose), listed as full-length cDNA) | effect on cell survival, colony formation (P19 cells; normoxic conditions, listed as KIAA0538) | effect on cell survival, colony formation (P19 cells; normoxic conditions, listed as full-length cDNA) |
| --- | --- | --- | --- | --- | --- | --- | --- | --- | --- | --- |
| B1 | rescue of cells from apoptotic death | protects | increased cell survival | protection | protection | – | – | – | – | – |
| B2 | – | – | – | – | – | very few colonies remaining | almost entirely non-viable | dramatically cytotoxic | detrimental | moderately cytotoxic |
